Earlier results as cited in patent US10487153B2, “Carbonic anhydrase IX-specific antibodies and uses thereof” (National Research Council of Canada, priority 2015, dated 2019).

Target: T1, CA-IX (Homo sapiens, UniProt Q16790)
T1 construct: host or cells: patients' own tumour tissue (endogenous)
Details: >6-year span; compared to a placebo; cited from earlier work

cG250: chimeric version of anti-CA-IX mAb G250, developed as a therapeutic antibody
disease-free survival rate of patients: not improve the disease-free survival rate
